Measurements taken from paper PMC10705692, “Structural dynamics of GluK2 kainate receptors in apo and partial agonist bound states” (Research Square, 2023).

Biological target: the molecule itself
Assay: cryo-EM structure; purified GluK2 EM in DDM micelles without ligand (apo; residual glutamate washed out on Strep-Tactin), 50 mM Tris-Cl pH 8.0, 150 mM NaCl, 1 mM DDM, ~4 mg/ml; single-particle cryo-EM, C2 imposed, 3.0 Å

B1: full-length rat GluK2 KAR, cryo-EM construct (GluK2 EM) (receptor, UniProt P42260 32-908, looked up)
chain: TTHVLRFGGIFEYVESGPMGAEELAFRFAVNTINRNRTLLPNTTLTYDTQKINLYDSFEASKKACDQLSLGVAAIFGPSHSSSANAVQSICNALGVPHIQTRWKHQVSDNKDSFYVSLYPDFSSLSRAILDLVQFFKWKTVTVVYDDSTGLIRLQELIKAPSRYNLRLKIRQLPADTKDAKPLLKEMKRGKEFHVIFDCSHEMAAGILKQALAMGMMTEYYHYIFTTLDLFALDVEPYRYSGVNMTGFRILNTENTQVSSIIEKWSMERLQAPPKPDSGLLDGFMTTDAALMYDAVHVVSVAVQQFPQMTVSSLQCNRHKPWRFGTRFMSLIKEAHWEGLTGRITFNKTNGLRTDFDLDVISLKEEGLEKIGTWDPASGLNMTESQKGKPANITDSLSNRSLIVTTILEEPYVLFKKSDKPLYGNDRFEGYCIDLLRELSTILGFTYEIRLVEDGKYGAQDDVNGQWNGMVRELIDHKADLAVAPLAITYVREKVIDFSKPFMTLGISILYRKPNGTNPGVFSFLNPLSPDIWMYVLLAYLGVSVVLFVIARFSPYEWYNPHPSNPDSDVVENNFTLLNSFWFGVGALMQQGSELMPKALSTRIVGGIWWFFTLIIISSYTANLAAFLTVERMESPIDSADDLAKQTKIEYGAVEDGATMTFFKKSKISTYDKMWAFMSSRRQSVLVKSNEEGIQRVLTSDYAFLMESTTIEFVTQRNCNLTQIGGLIDSKGYGVGTPMGSPYRDKITIAILQLQEEGKLHMMKEKWWRGNGCPEEESKEASALGVQNIGGIFIVLAAGLVLSVFVAVGEFLYKSKKNAQLEKRSFCSAMVEELRMSLKCQRRLKHKPQAPVIVKTEEVINMHTFNDRRLPGKETMA
modifications: N-glycosylation at Asn 67, 73, 275, 378, 412, 423, 430, 546 and 751 (LC-MS/MS of the purified protein)
notes: Glutamate receptor ionotropic, kainate 2 (GluK2), rat, full length; RNA-edited at position 567 (I to V), with C576V and C595S; followed by a human rhinovirus 3C protease site and a Twin-Strep tag at the C-terminus; Homotetramer (subunits A-D); No cleavage of the 3C site is described; also called homomeric rat GluK2; GRIK2_RAT; source: Sf9 insect cells (baculovirus, EarlyBac), solubilised in DDM, …
For B1, the “stoichiometry N” value was 4.
